± gives the uncertainty stated by the source.
B1: Zinc finger MYM-type protein 2, residues 463 to 506; numbered along this chain, Q9UBW7 (parent)
chain: IMNCCEQCGEYLPSKGAGNNVLVIDGQQKRFCCQSCVSEYKQVG

Variants of: B1
Assay: abundance fitness (aPCA) (normalised: wild type 0, dead -1); higher = more abundant; growth selection in yeast, the domain comes from the species named
Settings: Homo sapiens

Abundance fitness, by site and new letter:
Q42: M -0.119 ± 0.17 | K -0.045 ± 0.26 | G 0.076 ± 0.077 | N 0.438 ± 0.38 | S -0.023 ± 0.13 | R 0.063 ± 0.072 | V 0.151 ± 0.087 | P -0.169 ± 0.22
Q27: V -0.144 ± 0.095 | G -0.039 ± 0.079 | P -0.218 ± 0.12 | F -0.173 ± 0.23 | E -0.1 ± 0.11 | L -0.045 ± 0.097 | R -0.206 ± 0.091 | C -0.084 ± 0.17 | S -0.172 ± 0.12 | A -0.045 ± 0.13 | W -0.198 ± 0.1
V43: H -0.361 ± 0.34 | R -0.039 ± 0.1 | M -0.218 ± 0.14 | T -0.026 ± 0.13 | W -0.296 ± 0.16 | Q -0.055 ± 0.12 | S -0.159 ± 0.16 | E -0.067 ± 0.091 | L -0.222 ± 0.15 | P 0.144 ± 0.22 | D -0.123 ± 0.34 | A 0.001 ± 0.084 | G 0.039 ± 0.091
S35: L -0.136 ± 0.07 | W -0.114 ± 0.088 | Y -0.08 ± 0.22 | Q -0.065 ± 0.095 | C -0.113 ± 0.088 | H -0.091 ± 0.2 | R 0.085 ± 0.072 | P -0.058 ± 0.13 | A -0.072 ± 0.074 | K 0.156 ± 0.1 | G 0.024 ± 0.077 | M -0.087 ± 0.11 | F -0.226 ± 0.19 | E 0.006 ± 0.1 | I 0.024 ± 0.11 | V -0.092 ± 0.1
E39: A 0.09 ± 0.076 | V 0.086 ± 0.087 | G 0.095 ± 0.083 | K 0.33 ± 0.12 | S 0.054 ± 0.1 | Y 0.032 ± 0.15 | P -0.285 ± 0.13 | M 0.087 ± 0.13 | W -0.478 ± 0.098 | T 0.093 ± 0.13 | C 0.204 ± 0.11 | L -0.265 ± 0.14 | Q -0.144 ± 0.2
G44: E -0.172 ± 0.15 | R -0.058 ± 0.094 | W -0.189 ± 0.088 | Q -0.471 ± 0.37 | C -0.157 ± 0.11 | V -0.144 ± 0.11 | T -0.118 ± 0.096 | P -0.217 ± 0.4 | L -0.262 ± 0.17
V37: C 0.018 ± 0.15 | D -0.227 ± 0.1 | G -0.226 ± 0.075 | K -0.101 ± 0.085 | F -0.259 ± 0.16 | T 0.049 ± 0.13 | W -0.093 ± 0.086 | E 0.109 ± 0.1 | M 0.181 ± 0.14 | A -0.063 ± 0.083 | Q -0.024 ± 0.14 | P -0.135 ± 0.13 | S -0.161 ± 0.099 | R -0.112 ± 0.072
S38: T -0.113 ± 0.12 | M -0.038 ± 0.11 | P -0.329 ± 0.19 | G -0.024 ± 0.071 | E 0.062 ± 0.09 | D -0.081 ± 0.16 | Q -0.01 ± 0.16 | C -0.108 ± 0.14 | I -0.106 ± 0.25 | W -0.197 ± 0.092 | K -0.025 ± 0.11 | A 0.019 ± 0.082 | L -0.038 ± 0.081 | H -0.183 ± 0.32
Q28: L -0.346 ± 0.12 | N -0.29 ± 0.18 | C -0.47 ± 0.15 | M -0.123 ± 0.15 | I -0.038 ± 0.33 | D 0.189 ± 0.22 | V -0.169 ± 0.099 | Y -0.305 ± 0.16 | K -0.301 ± 0.18 | T -0.032 ± 0.1 | W -0.405 ± 0.094 | A -0.133 ± 0.086 | P -0.065 ± 0.11 | G -0.239 ± 0.072 | H 0.117 ± 0.2
G26: T -0.291 ± 0.1 | Q -0.083 ± 0.12 | A -0.059 ± 0.1 | Y 0.285 ± 0.28 | R -0.255 ± 0.07 | M -0.384 ± 0.15 | W -0.337 ± 0.075 | S -0.065 ± 0.096 | K -0.251 ± 0.1 | C -0.059 ± 0.1 | I -0.296 ± 0.25 | L -0.307 ± 0.089 | V -0.243 ± 0.1 | E -0.077 ± 0.098 | D 0.183 ± 0.34
K29: M -0.018 ± 0.12 | E -0.231 ± 0.14 | T -0.313 ± 0.14 | A -0.235 ± 0.085 | P -0.499 ± 0.12 | S -0.329 ± 0.11 | G -0.234 ± 0.082 | C -0.752 ± 0.26 | V -0.078 ± 0.082 | I -0.241 ± 0.14 | F -0.17 ± 0.089 | L -0.067 ± 0.085 | Q -0.283 ± 0.15 | H 0.051 ± 0.086 | Y -0.026 ± 0.15 | W -0.432 ± 0.086 | N -0.464 ± 0.21 | R -0.06 ± 0.079

Source: the Human Domainome abundance scans (Beltran et al. 2025)
